From patent publication US20040023887A1
No end group written: not given here.

B1: 20E2Bβ-4-G6-IR (peptide)
peptide: SQAGSAFYAWFDQVLRTVHSA
B2: RP6KK (peptide)
chain: TFYSCLASLLTGTPQPNRGPWERCRKK
modifications: not checked
B3: H2CA-4-H9-IGFR (peptide)
peptide: RGAVAGFHDQFYDWFDRQVSRVHKFG
B4: B6Hα-1-B5-IR (peptide)
peptide: CCTTEMVVMDARDDPFYHKLSELVTGG
B5: A6L-0-E3-IR (peptide)
peptide: YRGMLVLGRISGGAGKAASERPARIGQKVSAVNFYDWFV
B6: 20E2B-2-B11-IGFR (peptide)
peptide: VVTPVNFYRALEALVRGXRLG
modifications: not fully specified; printed as VVTPVNFYRALEALVRG.RLG; X: residue not identified in the source
B7: 20E2B-4-F9-IGFR (peptide)
peptide: QPDHSYFYSLLQELVGSEERL
B8: 20E2A-3-A4-IGFR (peptide)
peptide: AGSVTSFYDAMEQLVATGTSA

Legend:
[1] = molecular target: soluble human insulin receptor-immunoglobulin heavy chain chimera (human) (UniProt P06213); assay: phage ELISA
[2] = molecular target: His-tagged soluble recombinant human IGF-1R (human), P08069; assay: AlphaScreen competition versus IGF-1 (b-hIGF-1, srhIGF-1R-his)
[3] = molecular target: soluble human insulin receptor-immunoglobulin heavy chain chimera (human), P06213; assay: phage ELISA
[4] = molecular target: soluble IGF-1R (recombinant human IGF-1R extracellular domain, R&D Systems Cat. # 391-GR/CF) (human), P08069; assay: phage ELISA
[5] = molecular target: Insulin receptor prepared according to Bass et al., 1996 (soluble IR-immunoglobulin chimera) (human) (UniProt P06213); assay: phage ELISA; IR ratio divided by IGF-1R ratio
[6] = molecular target: Insulin receptor prepared according to Bass et al., 1996 (soluble IR-immunoglobulin chimera) (human) (UniProt P06213); assay: phage ELISA, receptor coated on plate; A405 over non-fat milk

| Binder | IR/IGF-1R ratio comparison [1] | ratio over background [1] | further results |
| --- | --- | --- | --- |
| B1 | 0.3 | 1.9 | – |
| B2 | – | – | Affin. [2]: 0.19 µM |
| B3 | 0.3 | 1.9 | – |
| B4 | 0 | 1 | – |
| B5 | 0.1 | 2 | – |
| B6 | – | – | IR/IGF-1R ratio comparison [3]: 0.1; ratio over background [3]: 1.1; IGF-1R/IR ratio comparison [4]: 9.4; ratio over background [4]: 10.6 |
| B7 | 0.1 | 1.9 | – |
| B8 | – | – | IR/IGF-1R ratio comparison [5]: 0.7; ratio over background (IR) (fold over background) [6]: 1.8 |
